Results from US20260130997A1 (BEAM THERAPEUTICS, published 2026).

Legend:
[1] = target: T1, purified CD45 protein E259G (Homo sapiens, UniProt P08575 225-394, limits assumed); test: biosensor; 100 nM mAb030-9 captured with Anti-Human IgG Fc Capture (AHC), 300 nM purified CD45 protein
T1 construct: Purified CD45 variant of the biosensor assay
T1 chain: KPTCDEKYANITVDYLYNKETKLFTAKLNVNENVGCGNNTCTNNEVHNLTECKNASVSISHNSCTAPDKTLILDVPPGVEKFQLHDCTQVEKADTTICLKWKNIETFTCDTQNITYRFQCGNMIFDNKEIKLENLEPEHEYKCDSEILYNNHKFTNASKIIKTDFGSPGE
Experimental: (§1) 300 nM of purified CD45 protein was contacted with the immobilized antibody. At 300 s the biosensor was placed in buffer without purified CD45 protein.

[2] = target: T2, purified CD45 protein N286D (Homo sapiens, UniProt P08575 225-394, limits assumed); test: as above
T2 construct: Purified CD45 variant of the biosensor assay
T2 chain: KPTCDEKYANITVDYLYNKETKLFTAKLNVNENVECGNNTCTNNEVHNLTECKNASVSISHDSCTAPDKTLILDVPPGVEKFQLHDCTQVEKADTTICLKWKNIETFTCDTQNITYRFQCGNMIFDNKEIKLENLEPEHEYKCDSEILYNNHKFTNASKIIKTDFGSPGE
Experimental: as §1

B1: mAb U139AGL030-9 (mAb030-9) (antibody, mouse IgG1, kappa, V domains shown)
VH: EVKLLESGGGLVQPGGSLKLSCAASGFDFSRYWMSWVRQAPGKGLEWIGEINPTSSTINFTPSLKDKVFISRDNAKNTLYLQMSKVRSEDTALYYCARGNYYRYGDAMDYWGQGTSVTVSS
VL: DIALTQSPASLAVSLGQRATISCRASKSVSTSGYSYLHWYQQKPGQPPKLLIYLASNLESGVPARFSGSGSGTDFTLNIHPVEEEDAATYYCQHSRELPFTFGSGTKLEIKR
notes: In the biosensor assay the antibody was captured with Anti-Human IgG Fc Capture (AHC); also called mAb30-9; mAb039-9
- response [1]: < 0.05 nm
- response [2]: < 0.05 nm
